“Also recorded” adds a separate entry of the source.
How the values were obtained:
[1] = test system: overnight abstinent smokers; assay: Positive and Negative Affect Schedule (PANAS) mood ratings (Example 1); assay type: in vivo, human
Excerpt: Intranasal spray administration of insulin or placebo occurred at 12:30 PM. The purpose of the spacing time between morning check-in and nasal spray administration was stabilization of postprandial insulin levels. In a randomized fashion, the study nurse administered one spray in each nostril every three minutes for the total of six sprays of either insulin or placebo. Instructions to perform the Trier Social Stress Test were given at 13:20, and speech delivery occurred 13:30. Briefly, the Trier Social Stress Test^13 is a standardized laboratory stressor consisting of a free speech and a mental arithmetic task in front of an audience. Participants were introduced to the task and instructed to prepare a 5-minute presentation in which they were to promote their candidacy for a job. The speech was delivered after a 10-minute preparation period. Thereafter, participants were introduced to the mental arithmetic task, also standing in front of the audience and a self-projecting television screen. Subjects were required to count backwards from 2023 in steps of 17 as fast and accurately as possible for five minutes; upon making a mistake, subjects were asked to stop and start again at 2023. At every post-stress timepoint (13:40, 13:50, 14:00, 14:10, and 14:40), study nurses checked POC glucose to ensure euglycemia. After the last time point at 14:40, subjects ate a snack, had their glucose level checked, received another nares exam, and were discharged from the clinic at 16:00.
Subjective measures included the Questionnaire on Smoking Urges (QSU) Brief Form and Positive and Negative Affect Schedule (PANAS). Urges to smoke were rated using the 10-item QSU Brief Form^14 that consists of 10-questions. The answers are scored from 1 (strongly disagree) to 7 (strongly agree). These questions are the basis for the two factor derived subscales. Factor 1 subscale reflects a strong desire and intention to smoke with smoking perceived as rewarding. Factor 2 subscale reflects an anticipation of relief from negative affect with an urgent desire to smoke. Study data analysis included evaluations of both factors. The PANAS (Watson et al., 1988. J Pers Soc Psychol 54(6):1063-1070) consists of 10 negative and 10 positive mood terms rated on five-point Likert-type response scales from 1 (very slightly or not at all) to 5 (extremely). Positive and negative scale scores each range between 10 and 50. The PANAS was chosen as a composite measure of self-reported positive and negative affect. Subjective measures were taken at 08:30, 12:20, 13:00, 13:40, 13:50, 14:00, 14:10 and 14:40.
Random coefficient models were constructed for analyzing subjective (i.e., craving and mood), blood (insulin, glucose, C-peptide and nonesterified fatty acids) and cardiovascular (blood pressure) measures. For every model, an evaluation of non-linear term was performed, and, if significance was detected, that polynomial term for time was included in the model. Treatment, time and treatment by time interaction were included as fixed effects. Time nested within subjects was included as a random effect. If an interaction was detected, post hoc comparisons were performed comparing treatment groups at each time point. Cortisol was log-transformed for the purpose of normalizing distribution. The summary measure for cortisol analysis was peak change from baseline. Baseline cortisol was the 8:30 AM measurement, and time period for determination of peak was between 13:40 and 14:40. This time period reflects any cortisol change that resulted from the psychosocial stress procedure, with speech occurring from 13:30 to 13:35 and math from 13:35 to 13:40. Group differences were compared using analysis of variance (ANOVA). Significance values are reported as detected; no adjustments were made for multiple comparisons.

[2] = test system: overnight abstinent smokers; assay: Salivary cortisol response to Trier Social Stress Test (Example 1); assay type: in vivo, human; conditions: 60 IU vs placebo, F(1,35)=12.78, p≤0.001
Excerpt: Intranasal spray administration of insulin or placebo occurred at 12:30 PM. The purpose of the spacing time between morning check-in and nasal spray administration was stabilization of postprandial insulin levels. In a randomized fashion, the study nurse administered one spray in each nostril every three minutes for the total of six sprays of either insulin or placebo. Instructions to perform the Trier Social Stress Test were given at 13:20, and speech delivery occurred 13:30. Briefly, the Trier Social Stress Test^13 is a standardized laboratory stressor consisting of a free speech and a mental arithmetic task in front of an audience. Participants were introduced to the task and instructed to prepare a 5-minute presentation in which they were to promote their candidacy for a job. […]
Salivary measures: Saliva samples were collected using a saliva collection kit (Salimetrics, LLC, Carlsbad, Calif.). Saliva samples were collected at 08:30, 12:20, 13:00, 13:40, 13:50, 14:00, 14:10, and 14:40, and analyzed for cortisol as follows: A microtitre plate was coated with monoclonal antibodies to cortisol using salivary cortisol ELISA kit (Salimetrics, LLC, Carlsbad, Calif.). […] Bound cortisol peroxidase was measured by the reaction of the peroxidase enzyme on the substrate tetramethylbenzidine (TMB). […] Optical density was read on a standard plate at 450 nm. […]

[3] = test system: smokers, 36 hours of smoking abstinence; assay: Post-spray symptom-specific subjective ratings (0-10) of pain, burn, taste (Example 2); assay type: in vivo, human
Experimental: Additional outcome measures included safety measures, i.e., post-spray symptom-specific subjective ratings and adverse events. Post-spray symptom-specific subjective ratings (0-10) of burn, pain, cough, and taste were collected after each spray round. Administration instructions were one spray in each nostril every three minutes for the total of six sprays. […] Adverse events were recorded and collected following the completion of every session as well as completion of the entire study.
Placebo contained 8.7% NaCl. Per FDA approved protocol, the product was prepared in a biosafety cabinet of UNM Translational Radiopharmacy. Drug Preparation occurred 30 minutes before administration. […] or placebo was placed in a 10 mL amber glass bottle (Gerresheimer AG, Düsseldorf, Germany), which was capped with a 10 mg sterile nasal pump (Aero Pump GmbH, Hochheim, Germany). Assembled product was primed per manufacturer's recommendations before 0.6 ml volume was administered to study participants. In a randomized fashion, study nurse administered one spray in each nostril every three minutes for the total of six sprays of either insulin or placebo. As each spray delivers 0.1 ml of fluid, and the concentration of insulin in Novolin R is 100 IU/mL, administering six sprays delivers 60 IU of insulin.
Random coefficient models were constructed for analyzing study outcomes. Treatment, time, treatment by time interaction, and sequence were included as fixed effects. Time nested within subjects, and time nested within treatment nested within subjects were included as random effects. Adverse events are presented in a descriptive fashion. No adjustment for multiple tests was made; all p values are reported at their nominal level.

[4] = cited from earlier work
[5] = vs 8.7% NaCl placebo, scale 0-10, three spray rounds, p≤0.05

intranasal insulin: bulk human Regular insulin (U100 Novolin R, Novo Nordisk US), 100 IU/ml, six nasal sprays delivering 60 IU
Negative mood ratings (PANAS), effect of treatment ([1]; 60 IU vs placebo): the effect of treatment was not significant | Positive mood ratings (PANAS), effect of treatment ([1]; 60 IU vs placebo): no effect | Negative mood ratings (PANAS), effect of treatment ([1]; 60 IU vs placebo, listed as Intranasal insulin): no effect | Negative mood (PANAS), treatment×time interaction, b ([1]; SE(b)=0.01, z=0.10, p=0.92, not significant): 0.001 | Positive mood (PANAS), treatment×time interaction, b ([1]; SE(b)=0.017, z=−0.97, p=0.33, not significant): −0.01 | Negative mood (PANAS), effect of treatment, b ([1]; SE(b)=1.30, z=1.07, p=0.28, not significant): 1.38 | Positive mood (PANAS), treatment, b ([1]; SE(b)=2.47, z=−0.19, p=0.84, not significant): −0.47 | Peak salivary cortisol levels following stress procedure (peak change from baseline, log-transformed) [2]: increased (i.e., restored) the blunted cortisol response to stress; also recorded: restores blunted cortisol response to stress | Peak salivary cortisol levels following stress procedure (peak change from baseline, log-transformed) ([2]; listed as Intranasal insulin): significantly increased | “taste” rating, interaction with treatment, b ([3]; SE(b)=0.10, z=−0.75, p=0.45, not significant): −0.07 | “pain” rating, treatment×spray number, b ([3]; SE(b)=0.16, z=−0.47, p=0.63): −0.07 | “burn” rating, interaction with treatment, b ([3]; SE(b)=0.17, z=1.23, p=0.22, not significant): 0.21 | “pain” rating, treatment, b ([3]; SE(b)=0.31, z=−1.17, p=0.24): −0.36 | “burn” rating, treatment, b ([3]; SE(b)=0.43, z=−2.34, p≤0.05): −1.01 | Subjective spray rating of “pain”, effect of treatment ([3]; vs 8.7% NaCl placebo, scale 0-10, three spray rounds): No group differences were detected | Subjective spray rating of “burn”, effect of treatment [3, 5]: Main effect of treatment was significant; also recorded: There was an effect of treatment | Subjective spray rating of “taste”, effect of treatment [3, 5]: Main effect of treatment was significant; also recorded: there was an effect of treatment | Subjective spray rating of “burn”, effect of treatment ([3]; vs 8.7% NaCl placebo, scale 0-10, three spray rounds, p≤0.05, listed as Intranasal insulin): notable burning sensation | CSF insulin levels and peripheral insulin levels after intranasal administration ([4]; humans): increases CSF insulin levels without changing peripheral insulin levels | Time to reach the CSF ([4]; intranasal route): within minutes
